Reference: patent US10676721B2, “Bacteriophages expressing antimicrobial peptides and uses thereof” (priority 2009, dated 2020)

What was measured:
[1] = test system: E. coli; experiment: Exponential phase OD600 AMP killing assay on E. coli; assay type: cell-based, Escherichia coli; settings: concentration not singled out (192 and 640 μg/mL tested)
Procedure: (§1) 1. Inoculate the appropriate host strain in LB medium with the appropriate selective marker and incubate with shaking at 37° C. overnight. 2. Re-dilute the culture 1:5000 into LB with the appropriate selective marker and grow at 300 rpm and 37° C. to an OD600 between 0.2 and 0.4.3. Add the appropriate amount of AMP or bacteriophage to the wells, running at least duplicate samples, preferably triplicates, and always carrying a no treatment control to control for phage contamination. 4. Sample points every 5 minutes using an automated 96-well assay plate capable heated and shaking plate reader.
(§2) The inventors tested a panel of AMPs, shown in Table 3 to assess which AMP has the greatest bacteriocidality against both E. coli and S. aureus. Cultures were grown to an optical density measured at 600 nm between 0.3-0.6 and then the AMPs were added in the respective concentrations. The decrease in OD600 is assessed as the killing of bacterial cells by the AMP, if the OD600 drops, other results cannot be inferred, as the information gained is from the OD600 is limited. The abbreviation SA denotes tests on Staphylococcus aureus, whereas EC denotes Escherichia coli bacteria. Experiments were run in duplicate. The nomenclature of these graphs follows the pattern: Strain.AMP.Concentration(μg/mL).replicate #(1 or 2). […]

[2] = test system: S. aureus; experiment: MIC of AMPs / enzyme against S. aureus; assay type: cell-based, Staphylococcus aureus; settings: Table 3; two values per AMP
[3] = test system: E. coli; experiment: MIC of AMPs against E. coli; assay type: cell-based, Escherichia coli; settings: Table 3; two values per AMP
[4] = test system: S. aureus; experiment: Exponential phase OD600 AMP killing assay on S. aureus; assay type: cell-based, Staphylococcus aureus; settings: concentration not singled out (192 and 640 μg/mL tested)
Procedure: as §1, §2

[5] = Toxicity of AMPs (Table 3, method not described); set-up: unit not given here; settings: two values per AMP
[6] = test system: E. coli strain that expresses capsular polysaccharide K; experiment: Mixed culture of E. coli host strain and E. coli strain expressing capsular polysaccharide K; assay type: cell-based, Escherichia coli
Excerpt: The expression of the genomic payload of lytic peptides and proteins increases the utility of the engineered bacteriophage to treat heterologous infections.

[7] = test system: antibiotic-resistant staphylococci; settings: cited from earlier work
[8] = test system: S. aureus; settings: CHAP165, from ROSS 2009; cited from earlier work
[9] = test system: Staphylococcus aureus; experiment: Co-culture of E. coli with Staphylococcus aureus; assay type: cell-based
[10] = test system: Staph aureus; experiment: Staph aureus growth in sterile media isolated 6 hours after M13 infection of EMG2 (FIG. 30); assay type: cell-based, Staphylococcus aureus; settings: no phage control 1.6
Procedure: The inventors isolated the media in which the antimicrobial agents were released. The inventors next infected a growing mid-log culture of EMG2 with the different wild-type and engineered M13 phage. At 6 hours post infection, the EMG2 cells were centrifuged at 13,000 g and filtered through a 0.2 um membrane to collect sterile media with the released AmP and enzyme. The media was replenished in nutrients by adding 5× concentrated LB solution. Mid-log Staph bacteria where then inoculated in the media at a concentration of 10^5 CFU/ml.
For example, the “no phage” or the “m13 mp 18” staph culture reach an OD of 0.8 within 4 hours whereas the “M13.pTRC.Omp.PonW3” media containing PonW3 (SEQ ID NO: 40) causes a growth delay by another 4 hours, the culture reaches the same OD of 0.8 only after 8 hours of growth. Finally, release of CHAP165 in the surrounding media due to phage reengineering limited staph growth to an OD level of 0.8 while compared to 1.6 for the no phage control and 1.2 for the wild M13mp18.

J589_A7: AMP, RLCRIVVIRVCR (SEQ ID NO: 10) (listed as Bos taurus)
bacteriocidal / bacteriostatic action on E. coli (OD600) [1]: intermediate bacteriocidal action
MIC S. aureus [2]: 64 µg/mL
MIC E. coli [3]: 64 µg/mL
bacteriocidal / bacteriostatic action on S. aureus (OD600) [4]: no effects
Toxicity [5]: 256

B1: CHAP165 (protein)
chain: AKTQAEINKRLDAYAKGTVDSPYRVKKATSYDPSFGVMEAGAIDADGYYHAQCQDLITDYVLWLTDNKVRTWGNAKDQIKQSYGTGFKIHENKPSTVPKKGWIAVFTSGSYEQWGHIGIVYDGGNTSTFTILEQNWNGYANKKPTKRVDNYYGLTHFIEIPVKA
sterilization of the heterogeneous E. coli culture [6]: sterilize the heterogeneous E. coli culture completely
lysis of the E. coli strain that expresses capsular polysaccharide K ([6]; lysK165 expressed from engineered bacteriophage): able to lyse
lytic activity compared with the natural LysK enzyme [7]: twice stronger lytic activity
MIC SA [8]: ~0.3 µg/mL
lysis of the staphylococcal population [9]: able to complete lyse
OD level to which staph growth is limited [10]: 0.8
